Laboratory results from the nanobody polyreactivity screen of Harvey et al. (2022).

Experiment: yeast display, Sf9 membrane polyspecificity reagent, FACS + sequencing; frameworks hold sequencing errors
In short: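 Nanobodies from a synthetic yeast display library (Saccharomyces cerevisiae BJ5465), induced 36–48 hours with galactose, were stained 1 hour at 4 °C with 10% biotinylated, detergent-solubilized Sf9 membrane reagent, enriched on streptavidin microbeads, then FACS-sorted. Anti-HA (expression) and streptavidin (reagent binding) fluorescence set low and high (top ~1%) gates. Polyreactivity labels come from the gate of origin. Genes were colony-PCR amplified, MiSeq 2 × 250 sequenced and filtered by CDR length.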

Row | Sequence | polyreactivity (PSR sort gate)
1 | QVQLVESGGGLVQAGGSLRLSCAASGSIFPINARGWYREAPGKERELVAVITSGGGGTYYADSVKGRFTISRDNAKNTVYLQMNCLTPEDTAVYYCAKRLSRKWQKFGYWGQGTQVTVSS | low polyreactivity
2 | QVHLEESGGGIVQAGGSLRLSCAASGFTFPVHAMGWYRQAPGKERQLVAAIRWIGGDTYYADSVKGRFTISRDNAKNTVYLQMNSLKPEDTAVYYCAAEDTDDYSIWFEYWGQGTQVTVSS | high polyreactivity
3 | QVQLVESGGGLVQAGGRLRLSCAASGSILGAYTMGWYRQAPGKERELVAAITRRGGSTYYSDSVKGRFTISRDNAKNTVYLQMNSLKPEDTAVYYCNAEYGVWYDYLVGPYDYWGQGNQVTVSS | low polyreactivity
4 | QVQLVESGGGLVQAGGSLRLTCAASGSTFHLYAMGWYRQAPGKEREFVAAIRGRGGNTYADSVKGRFTISRDNAKNTVYLQMNSLKPEDTAVNYCAAPLLRDLRSPYSYNYWGQGTQVTVSS | low polyreactivity
5 | QVQLEESGGGLVQAGGSLRLSCAASGSTLTRNAMGWYRQAPGKERELVAAITSGGRTKYADSVKGRFTISRDNAKNTVYLQMNSLKPEDTAVYYCAKGGPPGQRGYDYWGQGTQVTVSS | high polyreactivity
6 | QVQLVESGGGLVQAGGSLRLSCAASGITFSRNAMGWYRQAPGKERELVATITSGGSTNYADSVKGRFTISRDNAKNTVYLQMNSLKPEDTAVYYCAVDYDSYWYGTYVNEYDYWGQGTQVTVSS | low polyreactivity
7 | QVQLVESGGGLVQAGGSLRLSCAASGYIFTRNAMGWYRQAAGKERELVATISSRGGRTYYADSVKGRFTISRDNAKNTVYLQMNSLKPEDTAVYYCAATPWYRTRTYDYWGQGSQVTVSS | high polyreactivity
8 | QVQLVESGGGLVQAGGSLRLSCAASGFIIGRNAMGWYRQAPGKERELVAAMSTSGASTYYADSVKGRFTISRDNAKNTVYFQMNSLKPEDTAVYYCAARRPVWDGRGSGYDYWGQGTQVTVSS | low polyreactivity
9 | QVKLVESGGGLVQAGGSLRLSCADSGSIFYNNAMGWYRQAPGKERELVATIRRSGGSTYYADSVKGRFTISRDNAKNTVYLQMISLKPEDTAVDYCNAPPYLALVLIDYDYWGQGTQVTVSS | low polyreactivity
10 | QVQLVESGGGLVQAGGSLRLSCAASGIIFGYYAMGWYRQAPGKERELVAGISSSDSTYYADSVKGRFTISRDNAKNTVYLQMNSLKPEDTAVYYCATPVYRSTYEYDYWGQGTQVTVSS | low polyreactivity
11 | QVQLVESGGGLVQAGGSLRLSCAASGFIFSYYAMGWYRQAPGKERELVAAISSSGSRTYYADSVKGRFTISRDNAKNTVYLQMNSLKPEDTAVYYCAARGAAKYGYWGQGTQVTVSS | high polyreactivity
12 | QVQLVESGGGLVQAGGSLRLSCAASGRTSSRYVMGWYRQAPGKERELVASLSRSGGSTSYADSVKGRFTISRDNAKNTVYLQMISLKPEDTAVDYCYARTSFQRGGGFWGQGTQVTVSS | high polyreactivity
13 | QVHLVESGGGLVQAGGSLRLSCAATGSTFAHNDMGWYRQAPGKERELVAAITWGDSSTYYADSVKGRFTISRDNAKNTVYLQMNSLKPEDTAVYYCAKDYGFTGYGYWGQGTQVTVSS | low polyreactivity
14 | QVQLVESGGGLVQAGGSLRLSCAASGRTLRTYAMGWSRQAPGKERELVAAITSSGGRTYYADSVKGRFTISRDNAKNTVYLQMNSLKPEDTAVYYCAAARYYYGGDYWGQGTQVTVSS | high polyreactivity
15 | QVQLEESGGGLVQAGGSLRLSCAASGSTYGNSAMAGYRQAPGKERELVAAINGGPNTYYADSVKGRFTISRDNAKKTVYLQMNSLKPEDTAVYYCAAEAQAIGFHWGVDGDSWGQGTQVTVSS | low polyreactivity
16 | QVQLVESGGGLVQAGGSLRLICAASGIIFTGYTMGWYRPAPGKERELVAAITWRGGSTYYADSVKGRFTISRDNAKNTVYLQMNSLKPEDTAVYYCAAEGWYSWDDDYWGQGTQVTVSS | low polyreactivity
17 | QVQLVESGGALVQAGGSLRLSCDASGSTLWDYAMGWYRQAPRKERELVAASTQSTGDTHYADSVKGRFTLSRDNAKNTVYFQMNSLKPEDTAVYYCAADSYLSVYDPYGYWGQGTQVTVSS | low polyreactivity
18 | QVQIVESGGGLVQAGGSLRLSCAASGRIFYWNVMGWYRQAPGKERELVAAITRSSGGTSTYADSVKGRFTISRVNAKNTVYLQMNSLKPEDTAVYYCATRRRQAKSGRAYDYWGQGTQVTVSS | high polyreactivity
19 | QVQLVESGGGLVQAGGSLRLSCAASGSIFWYYGMGWYRPAPAKERELVAAISSGGSTNYADSVKGRFAISRDNAKNTVYIQMNSLKPEDTAVYYCAVRFTFPRYPASYSRYYYWGQGTQVTVSS | high polyreactivity
20 | QVQHVDSGGGLVQAGGSLRLSCAASGFIFAYNIMGWYRQAPGKERELVADISGTGSTNYADSVKGRFTISRDNAKNTVYLQMNSLKPEDTAVYYCATSGDRLVWGQGTLVTVSS | low polyreactivity
21 | QVQLVESGGGLVQAGGSLRLSCAASGSIFGPYAMGWYRQAPGKERELVAAITWTGGRTYYADSVKGRFTISRDNAKNTVYLQMISLNPEDTAVYYCAADYSPSTWYLYYTLFYYWGQGTQVTVSS | low polyreactivity
22 | QVQLVESGGGLVQAGGSLRLSCAPSGRTFIFYAMGWYRQAPGKERELVAAISSSGSGTYYADSLKGRFTISRDNAKNTVYLQMNSLKPEDTAVYSCAAAVVNSRRRPKYGYWGQGTQVTVSS | low polyreactivity

Row | Sequence | polyreactivity (PSR sort gate)
23 | QVQLVESGGGLVQAGGSLRLSCAASGRTFNGYVMGWYSQAPGKEREFVAVINWSGGNTYYADSVKGRFTISRDNAKNTVYLQMNSLKPEDTAVYYCAARRVRSYAYDYWGQGTQVTVSS | high polyreactivity
24 | QVQLVESGGGLVQAGGSLRLSCAASGRTLSNYAMGWSRQAPGKETELVAAISSSGSTNYADSVKGRFTISRDNAKNTVYLQMNSLKPEDTAVYYCAAESWFLRWYRYDYWGQGTQVSVSS | low polyreactivity
25 | QVQLVESGGGLVQAGGSLRLSCAASGFTFYFYAMAWYRQAPGKERELVAAISSGGSTKYADSVKVRFTISRDNAKNTVYLQMKSLKPEDTAVYYCNRYYPGSGPLGYWGQGTQVTVSS | low polyreactivity
26 | QVQLVESGGGLVQAGGSLRLSCAASGRTFTLYAMGWYRQAPGKERELVASITTGGRTYYADSVKGRFTISRDNAKNTVYLKMNSLKPEDTAVYYCNADRVYAWYRTYEYWGQGTEVTVSS | high polyreactivity
27 | QVQLVESGGGLVQAGGSLRVSCAPSGRTFSWYAMGWYRQAPGKEREFVAAIRWSGSSTYYADSVKGRFTISRDNAKNTVYLHMNSLKPEDTAVYYCAVAAGIPQRRYYYWGHGTQVTVSS | high polyreactivity
28 | QVQLVESGGGLVQAGGSLRFSCAASGFTFYPNTMGWYRQAPGTERELVAAISSSGGRTYYADSVKGRFTISRDNAKNTVYLQMNSLKPEDNAVYYCNAAKWLTSGGLDYWGQGTQVTVSS | high polyreactivity
29 | QVQLVESGGGLVQAGGSLRLSCADSGFIIFCYAMGWYRQAPGKERELVAAITSGGSTYYAYSVKGRFTISRDNAKNTVYLQMNSLKPEDTAVYYCAAVRWYGSKRYGYWGQGTQVTVSS | high polyreactivity
30 | QVQLVESGGGLVQAGGSLRLSCAASGLIFVINAMGWYRQAPGTERELVATISSGVSTNYADSVKGRFTISRDNAKNTVYLQMNSLKPEDTAVYYCNKGQTVSRGYRLYERYVYWGQGTQVTVSS | low polyreactivity
31 | QVHLVESGGGLVQAGGSLRLSCAASGRTFGWNVMGWYRQAPGKERELVAAISGSGGSTYYADSVKVRFTISRDNAKNTVYLQMNSLKPEDTAVYYCAALYGPGREYDYWGQGTQVTVSS | low polyreactivity
32 | QVQLVESGGGLVQAGGSLRLSCAASGFIFITVNAMGWYRQAPGKEREFVAAITRSGTGTYYADSVKGRFTISRDYAKYTVFLQMNSLKPEDTAVSYCAADATSTGAYDYWGQGTQVTVSS | low polyreactivity
33 | QVQLVESGGGLLQAGGSLRLSCAASGIIIYYYAMGWYRQAPGKERELVAAITYRGGSTYADSVKGRFTISRDNAKNTVYLQMNSLKPEDTAVYYCNAVWEEKYQAPGSYDYWGQGTQVTVSS | low polyreactivity
34 | QVQLVESGGGLVQAGGILRLSCAASGSIFEWYAMGWYRQAPGKEREFVAAINSGGSTYYADSVKGRFTISRDNAKNTVYLQMNSLKPEDTAVYYCNKVSYGYSTYGYWGQGTQVTVSS | low polyreactivity
35 | QVQLVESGGGLVQAGGSLRLTCAASGRIFGYYAKGWYSQAPGKERELGATITFGGGSTCYADSVKGRFTISRDNAKKTVYLQMNSLKPEDTAVYYCAADSGYLGIYGDEYSWGQGTQVTVSS | low polyreactivity
36 | QVQLVESGGGLVQAGGSLRLSCAASGIIFYRYTKGWSRQAPGKETELVAGITRNGGSTYYADSVKGRFTISRVNAKNPVYLQMNSLKPEDTAVYYCATTLKFYWAKLDYRGQGTQVTVSS | low polyreactivity
37 | QVQLVESGGGLVQAGGSLRLSCAASGRTFNRYAMGWYRQAPGKERELVAAINSVGSTYYADSVKGRFPISRDNAKNTVYLQMNSLKPEDTAVYYCNAVQGSRFGYWGQGTQVTVSS | high polyreactivity
38 | QVQLVESGGGLVQAGGSLRIRCAASGGIFPPNAMGWYRHPPGKERELVASISSDGSTNYADSVKGRFTISRDNAKNNVILQMNSLKPEDTAVFYCNATHEAFELDYWGQGTQVNVSS | low polyreactivity
39 | QVQLVESGGGLVQAGGSLRISCAASGSTFFLYAMGWYRQAPGKERELVAAISTTGGSTNYADSVKGRFTISRDNAKYTFELQINSLKPEDTAVYYCAAGPSAQSIYDHWGQGTQVTVSS | low polyreactivity
40 | QVQLVESGGGLVQAGGSLRLSCAASGFTFYLYAMGWYRQAPGKERELVAAISSGGSTNYADSVKGRFTISRDNAKNTVYLQMNSLKPEDTAVYYCNKRYRRATWWITAYDHWGQGTQVTVSS | high polyreactivity
41 | QVQLVESAGGLVQAGGSLRLSCAASGITFTYYAMGWYRQAPGKERELVATISYGGGITYYADSVKGRFTISRDNAKNTVYLQMNSLKPEDTAVYYCNADGATVWSLEYWGQGTQVTVSS | low polyreactivity
42 | QVQLVESGGGLVQAGGSLRLSCAASGFTFPVNAMGWYRQAPGKERELVATINSGGSTNYADSVKGRFTISRDNAKNTVYLQMNSLKPEDTAVYYCAAVTTDGVYAFDYWGQGTQVTVSS | low polyreactivity
43 | QVQLVESGGGLVQAGGSLRLSCAASGSIFPFYAMGWYRQAPGKERELVATISWSGGRTYYADSVKGRFTISRDNAKNTVYLQMNSLKPEDTAVYYCAAGSYHYPNAYYYWGHGTQVTVSS | high polyreactivity
